From paper PMC11054337 (2024)

What was measured:
[1] = biological target: T1, phosphofructokinase PTS1 peptide (Leishmania donovani); assay: fluorescence polarization
[2] = biological target: T2, xanthine phosphoribosyltransferase PTS1 peptide (Leishmania donovani); assay: fluorescence polarization
[3] = biological target: T3, galactokinase PTS1 peptide (Leishmania donovani); assay: fluorescence polarization
[4] = biological target: T1, phosphofructokinase PTS1 peptide; assay: fluorescence polarization competition
[5] = biological target: T2, xanthine phosphoribosyltransferase PTS1 …; assay: fluorescence polarization competition
[6] = biological target: T3, galactokinase PTS1 peptide; assay: fluorescence polarization competition

B1: PEX5 303-625 (protein)
chain: RLQKVTNSTDYPFEPNNPYMFHDFPFDEGMEMLQLGNLAEAALAFEAVCHKDSSNEKAWQILGTTQAENEKDGLAIIALNNARKLNPRNLEVHAALSVSHTNERNADAAMDSLKAWLVNHPEYEQLASVSIPPNAELDVQETFFFADPSRMREARTLYEAAIEMNPSDSQLFTNLGVLHNVAHEFDEAAECFRKAVALHPDDPKMWNKLGATLANGGHPDQALEAYNRALDINPGYVRAMYNMAVAYSNMSQYNMAARQIVKAIASQQGGTKPSGEGSIMATRNMWDLLRMTLNLMDRDDLVQLTYNEQLEPFVKEFGLEGHV
**Q.** Which results are given for B1?
**A.** Kd [1]: 102 nM; Kd [2]: 78 nM; Kd [3]: 382 nM; IC50 [4]: > 60000 nM; IC50 [5]: 3610 nM; IC50 [6]: 10600 nM
